According to the supplement of paper PMC9732359:
± gives the uncertainty stated by the source.

Assay: protein stability index of a GFP-peptide fusion (yeast GPS) (PSI 1-4); higher = more stable; sorted into four equal gates, so the index is relative within each strain
Method in brief: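 Sequencing reads from sorted gates were used to score each peptide. The library consisted of tiled 17-residue yeast protein peptides fused downstream of GFP on a Cherry-expressing plasmid, pooled and carried in yeast. Mid-log cultures in leucine-free medium were split into four equal gates by GFP/Cherry ratio, and each gate's plasmids were PCR-amplified and Illumina-sequenced. The protein stability index adds up, over all gates, the read frequency multiplied by the gate number.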

Sequence	protein stability index (doa10∆)	protein stability index (pdr5∆)	protein stability index (san1∆)	protein stability index (ubr1∆)
TISVPQIRDVMERFSVL [RRP6]	2.58 ± 0.094	2.7 ± 0.097	2.5 ± 0.12	2.68 ± 0.13
VKLGNIWKESLIELSGG [SMC2]	2.22 ± 0.18	2.24 ± 0.098	2.12 ± 0.14	2.19 ± 0.1
ERLQLLEDVVGAKSFEV [SMC3]	3.14 ± 0.21	–	–	–
GFPSAPQPLFMEDPPST [YMR153W/NUP53]	2.66 ± 0.06	3.08 ± 0.056	2.98 ± 0.053	2.8 ± 0.052
WSHNGPFETFDHASIRR [CYT1]	2.79 ± 0.06	3 ± 0.062	2.79 ± 0.051	2.96 ± 0.043
ENGLQLSDNAKTLHSQM [RPC34]	3.11 ± 0.18	3.27 ± 0.096	3.27 ± 0.07	3.13 ± 0.053
GELFLNESWKSSFEKFN [SRP72]	3.23 ± 0.23	3.22 ± 0.11	2.79 ± 0.12	3.24 ± 0.073
GIKAKHDKNIQKLLKQL [ISW2]	2.41 ± 0.048	2.45 ± 0.048	2.45 ± 0.051	2.79 ± 0.033
KSQEQREHSLQLFRTNK [PRP28]	3 ± 0.24	2.51 ± 0.11	2.88 ± 0.12	2.9 ± 0.076
FSQFWYWFPLAHFLSLS [RPN2]	1.66 ± 0.044	1.32 ± 0.045	1.21 ± 0.11	1.19 ± 0.038
QQGQNMSEQQWREQLRN [ROX3]	2.55 ± 0.071	2.48 ± 0.055	2.42 ± 0.086	2.23 ± 0.032
TCSYVEEAGSPLVYRHE [RPB9]	3.06 ± 0.13	2.92 ± 0.15	3.28 ± 0.11	2.75 ± 0.28
SASFSLKNGDKPHMLKF [RPL6A]	2.81 ± 0.083	1.84 ± 0.055	2.89 ± 0.06	3.13 ± 0.033
SSTKDYLTPPHECRLRD [RET1]	3.34 ± 0.12	3.22 ± 0.14	3.2 ± 0.18	3.25 ± 0.16
RMRVSVLEKYEVIGYIA [SSN3]	1.4 ± 0.14	1.56 ± 0.2	1.09 ± 0.27	1.15 ± 0.049
DENELKKSEEKLREKVN [MTW1]	2.97 ± 0.27	–	–	–
DTAVKTAETGYIQRRLV [RPO21]	1.75 ± 0.053	2.5 ± 0.069	1.98 ± 0.12	2.13 ± 0.058
KDDGAFVKFLSKKGSLE [RPL10]	3.51 ± 0.18	3.32 ± 0.14	3.06 ± 0.068	3.25 ± 0.064
GSQKTFEIDDEHRIRVF [RPS6A]	1.75 ± 0.089	2.76 ± 0.14	1.97 ± 0.16	2.5 ± 0.21
KLLQLAGVEDVYTQSNG [RPS2]	1.56 ± 0.066	2.64 ± 0.13	3.19 ± 0.13	3.13 ± 0.086
LIIDEIHLLHDDRGPVL [BRR2]	2.98 ± 0.1	2.98 ± 0.1	3.23 ± 0.046	2.88 ± 0.099
YKYKMRYVYAHFPINVN [RPL9A]	2.29 ± 0.051	2.29 ± 0.053	2.08 ± 0.078	2.51 ± 0.041
KQTAAYRTPGSSGVLSS [SSN2]	2.88 ± 0.063	3.04 ± 0.063	2.87 ± 0.077	2.88 ± 0.045
NNNGLPQNGNINNNINI [GAL11]	3.13 ± 0.05	3.29 ± 0.071	3.39 ± 0.044	3.11 ± 0.048
KNAQYHLLVKQGDGLLT [RPN7]	1.96 ± 0.1	1.61 ± 0.079	1.12 ± 0.18	1.22 ± 0.08
TLDKKDSIPLRITNSFY [RPN9]	2.52 ± 0.13	2.81 ± 0.11	2.9 ± 0.096	2.92 ± 0.13
HEDLVNSIESKNLSLQT [COR1]	2.96 ± 0.087	2.96 ± 0.074	3.09 ± 0.083	2.97 ± 0.073
